Source: patent US20240368233A1 (University of Washington, published 2024)

T1: 274B53
T1 construct: also called LHD274B DHR53 stop
T1 chain: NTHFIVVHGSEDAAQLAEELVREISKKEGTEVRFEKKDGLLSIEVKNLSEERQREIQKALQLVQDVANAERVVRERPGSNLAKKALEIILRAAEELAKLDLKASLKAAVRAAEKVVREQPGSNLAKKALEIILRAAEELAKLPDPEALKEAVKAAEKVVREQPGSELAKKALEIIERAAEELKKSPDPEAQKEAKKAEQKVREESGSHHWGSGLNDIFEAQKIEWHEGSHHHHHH

T2: LHD101 chainA
T2 construct: also called LHD101A
T2 chain: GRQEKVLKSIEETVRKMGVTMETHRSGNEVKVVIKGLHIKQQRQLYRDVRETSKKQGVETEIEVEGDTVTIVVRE

T3: DFA0
T3 construct: Bivalent connector
T3 chain: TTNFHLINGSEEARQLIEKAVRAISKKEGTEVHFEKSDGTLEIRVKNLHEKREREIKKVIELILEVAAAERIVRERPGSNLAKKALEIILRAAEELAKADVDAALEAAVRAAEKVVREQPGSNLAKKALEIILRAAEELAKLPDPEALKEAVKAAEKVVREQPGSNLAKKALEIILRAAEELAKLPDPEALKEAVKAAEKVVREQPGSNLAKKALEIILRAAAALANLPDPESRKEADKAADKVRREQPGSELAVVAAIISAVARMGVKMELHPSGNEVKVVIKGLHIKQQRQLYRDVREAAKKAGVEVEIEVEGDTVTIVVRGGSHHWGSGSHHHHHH

B1: 274A53 (designed binder)
chain: TTNFHLINGSEEARQLIEKAVRAISKKEGTEVHFEKSDGTLEIRVKNLHEKREREIKKVIELILEVAAAERIVRERPGSNLAKKALEIILRAAEELAKADVDAALEAAVRAAEKVVREQPGSNLAKKALEIILRAAEELAKLPDPEALKEAVKAAEKVVREQPGSELAKKALEIIERAAEELKKSPDPEAQKEAKKAEQKVREESGSHHWGSGLNDIFEAQKIEWHEGSHHHHHH
notes: also called LHD274A DHR53 stop; LHD274A53
B2: 101B62 (designed binder)
chain: HHHHHHGSGLNDIFEAQKIEWHEAENLYFQSGSNDEKRKRAEKALQRAQEAEKKGDVEEAVRAAQEAVRAAKESGDNDVLRKVAEQALRIAKEAEKQGNVEVAVKAARVAVEAAKQAGDNDVLRKVAEQALRIAKEALKQGNVDVAAKAAQVAEEAAKQAGDQDVLRKVKEVQIEIVLAAIELTVRKMGVTMETHRSGREVKVVIKGLHESQQEQLLEDVLRIAELAGVRVRIRFKGDTVTIVVRG
notes: also called LHD101B62

Legend:
274B53 = molecular target: T1, 274B53; assay: SEC titration (Superdex 200, normalised A230) of the complexes 274A53/274B53 and 29A53/29B53
LHD101 chainA = molecular target: T2, LHD101 chainA; assay: BLI steady-state titration, biotinylated unfused LHD101A on a streptavidin sensor
Source text: FIG. 8A-E. Characterization LHD binding in vitro. A: Designed models heterodimers (top row). Middle row, SEC binding experiments performed on a Superdex™ 75 column. Bottom row, biolayer interferometry kinetic binding traces. […] C: Kinetic binding traces from BLI. Equilibrium responses were used to fit equilibrium binding curves D: Equilibrium binding curves of LHDs from biolayer interferometry binding assays with data from C. […] Biotinylated unfused protomers were immobilized on streptavidin coated biosensors.
Biolayer interferometry experiments were performed on an OctetRED96 BLI system (ForteBio, Menlo Park, CA). Streptavidin coated biosensors were first equilibrated for at least 10 minutes in Octet buffer (10 mM HEPES pH 7.4, 150 mM NaCl, 3 mM EDTA, 0.05% Surfactant P20) supplemented with 1 mg/ml Bovine Serum Albumin (SigmaAldrich). Enzymatically biotinylated designs were immobilized onto the biosensors by dipping the biosensors into a solution with 10-50 nM protein for 30-120 s. This was followed by dipping in fresh octet buffer to establish a baseline for 120 s. Titration experiments were performed at 25° C. while rotating at 1,000 r.p.m. […]

DFA0 = molecular target: T3, DFA0; assay: SEC of mixed components; linear tetramer listed in Table 6, neighbours in the chain

Row | Binder | binding result (274B53) | binding result (LHD101 chainA) | binding result (DFA0)
1 | B1 | binds | – | –
2 | B2 | – | binds | binds
